This note sets out measurements from the RNAGym collection of RNA variant scans (doi:10.7554/elife.80360).

The chains are these.
B1: HDV Ribozyme (parent)
chain: GGCCGGCAUGGUCCCAGCCUCCUCGCUGGCGCCGGCUGGGCAACAUUCCGAGGGGACCGUCCCCUCGGUAAUGGCGAAUGGGACCCA

Variants of B1 are the subject of this series. Kind of series: self-cleavage, relative activity (ratio to wild type); higher = more cleavage; co-transcriptional.
With U47G C84A, the self-cleavage is 0.965.
As to U47G C84G, the self-cleavage is 0.475.
Then U47G C64G, with 0.485; and C49U C64A, with 0.739; and C48G A71G, with 0.962.
The same measure for C48G A71U: 0.554; for U47A A77C: 0.
U47A A77U: the self-cleavage was determined as 0.516.
Then U47A C66U, with 1.17; and C48A G74U, with 0.38.
C49A G82A: the self-cleavage was 0.104.
As to U47A G76U, the self-cleavage stood at 0.742.
Consider U47A G76A, for which the self-cleavage was 0.901.
Then G50C A78U, with 0.131.
The same measure for G50A G80U: 0.233.
As for C48U C85U, the self-cleavage stood at 1.14.
The same measure for C48U A77U: 0.356; for U46G G81U: 0.249.
Then U47A G54C, with 1.01.
For the variant G50A A56C, the self-cleavage came out at 1.25.
For the variant U47A U65G, the self-cleavage was found to be 0.931.
Consider U47A U65A, for which the self-cleavage is 1.07.
Regarding U47G C57G, the self-cleavage came to 1.22.
Take U47G C57A: the self-cleavage worked out at 1.22.
Turning to C48U G73C, the self-cleavage is 0.422.
Then C48G G52A, with 0.86.
Turning to C48G G52C, the self-cleavage is 0.762.
On to C49A A71C, for which the self-cleavage turned out to be 0.643.
On to C48A C49U, for which the self-cleavage is 1.23.
In the case of C48A C49A, the self-cleavage is 1.16.
G50C A77U: the self-cleavage turned out to be 0.554.
As for G50C A77G, the self-cleavage came to 0.665.
For U47C G74C, the self-cleavage was 0.256.
The same measure for U47C G74U: 0.633.
The same measure for U47A A83G: 0.734.
In the case of C49G G54C, the self-cleavage worked out at 0.762.
As for C49G G54A, the self-cleavage turned out to be 0.332.
As to C49U C62U, the self-cleavage came out at 1.17.
As for G50C A56C, the self-cleavage came out at 0.978.
Turning to C49U G54A, the self-cleavage was 1.02.
Turning to C49U G50U, the self-cleavage was 0.941.
As for C49U C84G, the self-cleavage was 0.364.
Then U47G U60A, with 1.33.
For C48G C86G, the self-cleavage was 1.11.
On to C48A G76U, for which the self-cleavage was 1.03.
Turning to C49A G73A, the self-cleavage is 0.314.
As to U47C G67A, the self-cleavage is 0.923.
As for U47C C49A, the self-cleavage turned out to be 0.95.
With C49A A56G, the self-cleavage stood at 1.11.
Regarding U47C G68C, the self-cleavage is 0.44.
In the case of C48A A78C, the self-cleavage amounted to 0.169.
Consider C48A A78U, for which the self-cleavage is 0.242.
For C48A A78G, the self-cleavage was determined as 0.776.
Regarding G50A C84A, the self-cleavage came to 0.95.
Then G50A C84G, with 0.853; and U47A C64U, with 1.08; and C49A A83U, with 0.719.
The same measure for U47C U60A: 0.987; for C49A G80A: 0.479; for U47C C63A: 0.739.
Consider U47C G53U, for which the self-cleavage worked out at 0.966.
With C48A A83U, the self-cleavage is 0.465.
Take C49G C75A: the self-cleavage was 0.185.
For C49U G68U, the self-cleavage was 0.817.
Then G50A G73A, with 0.623; and G50A G73U, with 0.369; and G50A G73C, with 0.436.
As for C49G G68C, the self-cleavage was found to be 0.458.
The same measure for C49G G68A: 0.789.
C48A U60G: the self-cleavage turned out to be 0.886.
Then C48A U60C, with 0.91; and C48A U60A, with 0.918; and U47C A56G, with 0.665.
With G50A U69G, the self-cleavage was found to be 0.76.
Turning to U47A C62U, the self-cleavage was found to be 1.03.
Regarding U47C A77C, the self-cleavage is 0.317.
Then C49A A78G, with 0.665; and U47C G76U, with 0.895.
Take U47C G76C: the self-cleavage amounted to 0.931.
Then U46G U60C, with 0.665; and C49G G81U, with 0.205.
As to C49G G81A, the self-cleavage is 0.361.
Turning to C49A C61U, the self-cleavage came to 0.789.
In the case of C49A C61A, the self-cleavage was determined as 0.759.
In the case of U47G C66A, the self-cleavage came out at 0.969.
In the case of C48G A87C, the self-cleavage was 1.08.
As to C48G A87G, the self-cleavage was 0.975.
Regarding C48A C62U, the self-cleavage was determined as 1.05.
Take C49A U69G: the self-cleavage was 1.33.
Then C48U G53U, with 0.923.
For C48A C63G, the self-cleavage was 0.73.
C48A C63U: the self-cleavage stood at 1.07.
Regarding U47C G55U, the self-cleavage was 0.831.
For the variant C48U G76U, the self-cleavage turned out to be 1.15.
Consider C48U G76A, for which the self-cleavage was 1.08.
In the case of C49A C75A, the self-cleavage is 0.156.
On to C48U G59C, for which the self-cleavage worked out at 1.23.
With U47A G81U, the self-cleavage was found to be 0.219.
Regarding U47A G81C, the self-cleavage was found to be 0.161.
The same measure for G50A G55C: 0.81; for C48G G82C: 0.111.
As to C48G G82U, the self-cleavage stood at 0.284.
Consider C49A G74A, for which the self-cleavage stood at 0.288.
For the variant C49A A87C, the self-cleavage came to 0.95.
As to C49A A87G, the self-cleavage was 0.839.
As for C48A U72C, the self-cleavage worked out at 0.519.
Consider C48G U69G, for which the self-cleavage amounted to 0.712.
In the case of C48G U69C, the self-cleavage is 0.987.
As for U47A C48U, the self-cleavage came out at 0.923.
On to C49U C61U, for which the self-cleavage is 0.851.
For the variant C48A G52U, the self-cleavage came out at 0.974.
For the variant G50A A83C, the self-cleavage is 0.525.
Then G50C C64A, with 0.389.
On to C48A G68C, for which the self-cleavage amounted to 0.707.
As for C48A G68A, the self-cleavage stood at 1.06.
As for U47G C58G, the self-cleavage came to 0.831.
On to C48G C49A, for which the self-cleavage stood at 0.808.
On to C48U C84U, for which the self-cleavage was 0.742.
On to C48U C84A, for which the self-cleavage was 0.958.
As to C49A U79A, the self-cleavage was 1.05.
Turning to C48U G55U, the self-cleavage came out at 1.11.
Then C49G G74U, with 0.219; and C49G G74C, with 0.192; and C48G C84U, with 0.848.
In the case of C48A G67C, the self-cleavage stood at 0.856.
As to G50A U60A, the self-cleavage turned out to be 0.776.
Turning to C49A C66U, the self-cleavage amounted to 0.979.
Turning to C49G G67C, the self-cleavage is 1.22.
In the case of G50A A71U, the self-cleavage was determined as 0.881.
On to G50A A71G, for which the self-cleavage was found to be 0.991.
As to C49U U60C, the self-cleavage came out at 1.04.
Take C49U U60A: the self-cleavage worked out at 0.718.
Take C49U U60G: the self-cleavage came to 0.939.
On to U46G U47G, for which the self-cleavage amounted to 0.262.
In the case of C48U G74C, the self-cleavage worked out at 0.253.
Take U47C U69C: the self-cleavage turned out to be 1.08.
The same measure for U47A U60A: 0.851; for C48A G53C: 1.2.
On to C48A A51U, for which the self-cleavage was 1.1.
As for U47G U72G, the self-cleavage came to 0.623.
In the case of C48A C57G, the self-cleavage worked out at 1.18.
With C49G C58A, the self-cleavage was determined as 0.764.
With U47G C48G, the self-cleavage worked out at 0.635.
U47G A77C: the self-cleavage stood at 0.35.
For the variant C48A, the self-cleavage came to 0.989.
C48G: the self-cleavage worked out at 0.988.
Regarding C48U, the self-cleavage amounted to 1.01.
Turning to C49G G73A, the self-cleavage came to 0.197.
In the case of C49G G73C, the self-cleavage came to 0.136.
Take C48U G52C: the self-cleavage was determined as 0.847.
For the variant U47C C86U, the self-cleavage amounted to 0.712.
The same measure for C48A C86G: 1.04; for G50A C86G: 0.884.
C48A A56U: the self-cleavage stood at 1.03.
On to U47G A51C, for which the self-cleavage is 1.13.
U47G A51U: the self-cleavage worked out at 1.2.
For the variant U47G A51G, the self-cleavage amounted to 0.906.
U46G G73A: the self-cleavage was found to be 0.831.
Then G50C A71G, with 1.01; and U47C C66G, with 1.17.
C48U A87G: the self-cleavage was determined as 1.07.
In the case of U47G C75A, the self-cleavage was determined as 0.107.
For U47G C75U, the self-cleavage stood at 0.305.
With C49A C85G, the self-cleavage is 0.762.
In the case of C48G C66U, the self-cleavage worked out at 0.868.
As to C48G C66A, the self-cleavage worked out at 0.898.
In the case of C49G G55A, the self-cleavage was found to be 0.976.
